The target of the assay is SARS-CoV-2 (2019-nCoV) Spike RBD-His Recombinant Protein (SARS-CoV-2, UniProt P0DTC2 319-541). Kind of assay: ELISA. A general note: An ELISA detects its analyte on a solid surface through an enzyme-linked reagent.

B1: B-38 (antibody, V domains shown)
VH: EVQLVESGGGLVQPGGSLRLSCAASGFIVSSNYMSWVRQAPGKGLEWVSVIYSGGSTYYADSVKGRFTISRHNSKNTLYLQMNSLRAEDTAVYYCAREAYGMDVWGQGTTVTVSS
VL: DIVMTQSPSFLSASVGDRVTITCRASQGISSYLAWYQQKPGKAPKLLIYAASTLQSGVPSRFSGSGSGTEFTLTISSLQPEDFATYYCQQLNSYPPYTFGQGTKLEIK
Turning to B1, the EC50 was 1.5 µg/mL.

The EC50 is the concentration giving half of the maximal effect.

The values are drawn from publication PMC8183521 (2021).
